FireProtDB (doi:10.1046/j.1432-1327.1999.00491.x)
Several values for one entry are separate records, joined by “and”; a condition that tells them apart may be missing. Equal values may be shown once.

Settings: Enterobacteria phage 434, Thermal, DSC, reversible: yes, whole UniProt chain shown; for unfolding free energy: 25 °C
[1] = pH 2, glycine 20 mM, NaCl 200 mM
[2] = pH 3, glycine 20 mM, NaCl 200 mM
[3] = pH 4, Sodium acetate 20 mM, NaCl 200 mM
[4] = pH 4.5, Sodium acetate 20 mM, NaCl 200 mM

B1: Regulatory protein cro wild type, P03036 (protein)
chain: MQTLSERLKKRRIALKMTQTELATKAGVKQQSIQLIEAGVTKRPRFLFEIAMALNCDPVWLQYGTKRGKAA
[1]
  unfolding free energy: 1.17 kcal/mol
  Tm: 38.3 °C and 39.4 °C and 35.6 °C
  unfolding enthalpy (calorimetric): 33.5 kcal/mol and 33.9 kcal/mol and 34.2 kcal/mol
pH 2, glycine 20 mM
  unfolding free energy: 0.22 kcal/mol
  unfolding enthalpy (calorimetric): 24.1 kcal/mol and 27.5 kcal/mol and 22.2 kcal/mol
[2]
  unfolding free energy: 2.27 kcal/mol
  unfolding enthalpy (calorimetric): 42.1 kcal/mol and 40.4 kcal/mol and 39 kcal/mol
pH 3, glycine 20 mM
  unfolding free energy: 2.58 kcal/mol
  unfolding enthalpy (calorimetric): 34.4 kcal/mol and 32 kcal/mol
[3]
  unfolding free energy: 3.78 kcal/mol
  Tm: 59.8 °C and 57.8 °C and 57.2 °C
  unfolding enthalpy (calorimetric): 51.1 kcal/mol and 50 kcal/mol and 49.7 kcal/mol
pH 4, Sodium acetate 20 mM
  unfolding free energy: 3.59 kcal/mol
  Tm: 58.2 °C and 53.6 °C
  unfolding enthalpy (calorimetric): 50 kcal/mol and 45.6 kcal/mol and 44.2 kcal/mol
[4]
  unfolding free energy: 4.33 kcal/mol
  Tm: 63.7 °C and 63.5 °C and 60.2 °C
  unfolding enthalpy (calorimetric): 54 kcal/mol and 54.7 kcal/mol and 52.1 kcal/mol
pH 4.5, Sodium acetate 20 mM
  unfolding free energy: 4.4 kcal/mol
  unfolding enthalpy (calorimetric): 53.1 kcal/mol and 46.4 kcal/mol
pH 7, PIPES 20 mM, NaCl 200 mM
  unfolding free energy: 5.33 kcal/mol
  Tm: 70.7 °C and 66.6 °C and 67.6 °C
  unfolding enthalpy (calorimetric): 58.6 kcal/mol and 57.6 kcal/mol and 58.1 kcal/mol
pH 7, PIPES 20 mM
  unfolding free energy: 5.35 kcal/mol
  Tm: 70.7 °C and 67.2 °C
  unfolding enthalpy (calorimetric): 59 kcal/mol and 54 kcal/mol
